The text below walks through data of patent CN116769729A (UNIV SCIENCE & TECHNOLOGY CHINA, dated 2023).

Test [1] concerns the target T1, 小鼠CD150 on mouse spleen cells (mouse, UniProt Q9QUM4 25-343).
T1 construct: This is endogenous CD150 on mouse splenocytes in the flow cytometry assay
T1 sequence: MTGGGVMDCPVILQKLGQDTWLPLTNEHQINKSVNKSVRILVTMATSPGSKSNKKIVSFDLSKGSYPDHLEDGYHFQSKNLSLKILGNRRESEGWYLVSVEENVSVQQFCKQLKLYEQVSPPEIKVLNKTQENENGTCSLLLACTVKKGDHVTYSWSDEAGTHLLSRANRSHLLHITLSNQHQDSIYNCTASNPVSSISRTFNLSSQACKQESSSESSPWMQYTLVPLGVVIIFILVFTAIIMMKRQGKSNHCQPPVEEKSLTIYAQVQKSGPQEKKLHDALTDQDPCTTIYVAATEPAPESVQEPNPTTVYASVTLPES
The experiment in a line: flow cytometry on mouse spleen cells. Background: In flow cytometry, cells or beads pass a laser one at a time.

The target in test [2] is T2, 小鼠CD150胞外段蛋白 (CD150m, hFc removed by TEV cleavage) (mouse, UniProt Q9QUM4 25-242).
T2 construct: The monomeric protein was used; In the BLI assay the protein was biotinylated (biotin-CD150); also called CD150蛋白; biotin-CD150
T2 sequence: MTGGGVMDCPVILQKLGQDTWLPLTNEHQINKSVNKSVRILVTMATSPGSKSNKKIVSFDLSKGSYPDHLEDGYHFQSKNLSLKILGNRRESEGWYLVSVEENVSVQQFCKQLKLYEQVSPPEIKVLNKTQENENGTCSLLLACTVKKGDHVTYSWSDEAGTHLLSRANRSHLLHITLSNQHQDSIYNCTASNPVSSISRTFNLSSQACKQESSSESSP
Kind of test: indirect ELISA, CD150 protein coated at 0.25 μg/ml, HRP anti-rat IgG detection. A general note: ELISA stands for enzyme-linked immunosorbent assay.

B1: 抗CD150单克隆抗体 (produced by rat hybridoma mCD150-mAb-1, CGMCC No.45539) (antibody, V domains shown)
VH: QIQLVQSGPELKKPGESVKISCKASGYTFTDYAMNWVKQAPGNGLKWMGYINTQTGKPTYADDFKQRFVFSLETSASTAYLQINNLNIEDTATYFCTRYNSGNWFAYWGQGTLVTVSS
VL: DIQMTQTPSSMPASLGERVTISCRAGQGISNYLNWYQQKPDGAIKPLIYYTSNLQSGVPSRFSGSGSGTDYSLTISSLEPEDFAMYYCQQYDSSPYTFGAGTKLELK
notes: also called CD150的单抗; 抗CD150抗体
As to B1, the binding result in test [1] was “binds”. Besides, the midpoint of the response in test [2], the EC50, lay at 1.13 µg/mL.

By EC50 is commonly meant the concentration needed to bring the measured effect to its halfway point.
